For the experiment, the target named is VP4 coated on microplates (indirect blocking ELISA) (Rotavirus A, simian strain SA11 …, UniProt A2T3T2). Nature of the experiment: ELISA. (ELISA stands for enzyme-linked immunosorbent assay.)

B1: m41# (engineered mouse Fc version of 41#) (antibody, V domains shown)
VH: EVQLVESGGGPVQPGGSLKLSCAASGFTFSNYEMYWVRQAPGKGLEWVSYISTSPAITYYADSVRGRFTISRDNAKSSLYLHMNSLRAEDTAVYYCATISHQQFSSGWNAWFDPWGQGTLVTVSG
VL: NFMLTQPHSVSESPGKTVTISCTGSSGSIASNYVQWYRQRPGSAPTTVIYENYQRPSGVPARFSGSIDRSSNSASLTISGLQTDDEADYYCQSYDNNNLWVFGGGTKLTVL
In the case of B1, the binding result is given as “binds”.

B2: C7H13 (chimeric antibody: variable regions of 7H13 in a human antibody framework) (antibody, V domains shown)
VH: QVQLKESGPGLVAPSQSLSITCTVSGFSLSRYSVHWVRQPPGKGLEWLGMIWNIGSTDYNSALKSRLSISKDNSQSQVFLKLNSLQTDDAAIYYCARNSGFDLFDFWGQGTTLTVS
VL: DIVMTQSHKFMSTSVGDRVSITCKASQDVTSAVAWYQQKPGQSPKLLISSASYRYTGVPDRFSGSGSGTDFTFTISSVQAEDLAVYYCQQHYSTPPTFGAGTKLELK
For B2, the binding result is on record as “binds”.

The values are drawn from publication PMC11746992 (Nature Communications, 2025).
